Source: publication PMC11303814 (Nature Communications, 2024)

Biological target: the molecule itself
Assay: cryo-EM structure

B1: full-length wild-type rat P2X7 receptor (receptor, UniProt Q64663 1-595, looked up)
chain: MPACCSWNDVFQYETNKVTRIQSVNYGTIKWILHMTVFSYVSFALMSDKLYQRKEPLISSVHTKVKGVAEVTENVTEGGVTKLVHGIFDTADYTLPLQGNSFFVMTNYLKSEGQEQKLCPEYPSRGKQCHSDQGCIKGWMDPQSKGIQTGRCIPYDQKRKTCEIFAWCPAEEGKEAPRPALLRSAENFTVLIKNNIDFPGHNYTTRNILPGMNISCTFHKTWNPQCPIFRLGDIFQEIGENFTEVAVQGGIMGIEIYWDCNLDSWSHRCQPKYSFRRLDDKYTNESLFPGYNFRYAKYYKENGMEKRTLIKAFGVRFDILVFGTGGKFDIIQLVVYIGSTLSYFGLATVCIDLIINTYASTCCRSRVYPSCKCCEPCAVNEYYYRKKCEPIVEPKPTLKYVSFVDEPHIWMVDQQLLGKSLQDVKGQEVPRPQTDFLELSRLSLSLHHSPPIPGQPEEMQLLQIEAVPRSRDSPDWCQCGNCLPSQLPENRRALEELCCRRKPGQCITTSELFSKIVLSREALQLLLLYQEPLLALEGEAINSKLRHCAYRSYATWRFVSQDMADFAILPSCCRWKIRKEFPKTQGQYSGFKYPY
modifications: limited glycosylation and acylation included in the models (sites not given)
binding result: binds
